This is an account of results in the supplement of paper PMC12764529.

± gives the half width of the 95% confidence interval. Some results are limits rather than exact numbers.

Data set [1] is described as follows: folding stability dG unfold from trypsin proteolysis; higher = more stable. In short, it runs like this: (§1)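 Designed mini-proteins (under 80 residues, no cysteine) in a PA-tagged cDNA display construct were digested with trypsin and chymotrypsin. Each protease was used at 11 concentrations (threefold dilutions) plus a no-protease condition, followed by sequencing. K50 was inferred by Bayesian fitting of sequencing counts, and unfolding free energy was derived against a sequence-predicted unfolded-state K50 and a shared folded-state K50, per protease or combined. Only designs with AlphaFold2 dimer inter-PAE above 15 were kept.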

Data set [2] is described as follows: folding stability dG unfold from chymotrypsin proteolysis; higher = more stable. The method in brief: as §1
Data set [3] in a line: folding stability dG unfold (combined trypsin and chymotrypsin); higher = more stable. The method in brief: as §1

For the sequence “SAGELKPGQIVVRTIEIDLPEEDEELREAIERGELIELELEDGSRVLMRVERKDGKLRITEVVILPRPESAG [r5_223_TrROS_Hall]”, the entries for the “folding stability dG unfold” value in data set [1], in data set [2] and in data set [3] were 1.66 ± 0.043 kcal/mol, 3.16 ± 0.029 kcal/mol and 2.73 ± 0.062 kcal/mol, respectively.
As to “SAGEPEKVTITLVDEETGVVITIEIDKETKKITITVESEEERERARELAERLAKELEEAGIKVEILPPSAGG [r19_354_TrROS_Hall]”, the entries for the “folding stability dG unfold” value in data set [1], in data set [2] and in data set [3] were 2.91 ± 0.14 kcal/mol, 2.26 ± 0.18 kcal/mol and 2.73 ± 0.16 kcal/mol, respectively.
In the same order, the values of “SAGEVELKIVLPKEEIEKILEALRKLAEEAGLEVEVEKIEKKEDGYYVITVTVKFKETEKEIKIEIIIPSAG [r5_41_TrROS_Hall]” are 3 ± 0.51 kcal/mol, 2.55 ± 0.12 kcal/mol and 2.69 ± 0.31 kcal/mol.
For “SAGEVELTEDGSLKITETIEVNGLLFKVTVTIDENGNISVSIEKVEVLPPPPPVEIKLEDEEAKKKALKSAG [r5_715_TrROS_Hall]”, the figures for the “folding stability dG unfold” value in data set [1], in data set [2] and in data set [3] were 0.26 ± 0.28 kcal/mol, 1.61 ± 0.14 kcal/mol and 1.16 ± 0.69 kcal/mol, respectively.
Consider “SAGFLGFGIEPHPNGWFKIEIMVMFPWPGGWFMFSIDITIPIVPIEPPPPPPVVEPKKENGKPKEWKYDSAG [r5_169_TrROS]”, for which the “folding stability dG unfold” value in data set [1] stood at 1.91 ± 0.13 kcal/mol; in data set [2], 3.38 ± 0.25 kcal/mol; in data set [3], 2.74 ± 0.51 kcal/mol.
In the case of “SAGFSITVDYEPEKGLWTVTFTSPPSTSPLSPEEVKETAREIAEKQGIKYELIEISREGNTWTMTIKVLSAG [r14_556_JUSTAS]”, the “folding stability dG unfold” value in data set [1] amounted to 4.25 ± 0.18 kcal/mol; in data set [2] it was 5.48 ± 0.082 kcal/mol; in data set [3], 5.39 ± 0.13 kcal/mol.
Consider “SAGFTLKLEFPDSTVDVKVTKVDPKNNIIYAEALLPGGEKLTLTYNPETGEIEIEKKKLERTPDGGLEESAG [r14_466_JUSTAS]”, for which the results for the “folding stability dG unfold” value in data set [1], in data set [2] and in data set [3] were 0.279 ± 0.14 kcal/mol, 1.51 ± 0.14 kcal/mol and 1.13 ± 0.16 kcal/mol, respectively.
On to “SAGFVMIKIELENPGNGKERELSIIIPYKSQEDARHIAEEIARELAKNGWKIKKIEVMVMPIPPPPDDPSAG [r5_660_TrROS]”, for which the “folding stability dG unfold” value stood at 3.95 ± 0.12 kcal/mol in data set [1], 5.29 ± 0.16 kcal/mol in data set [2] and 5.1 ± 0.24 kcal/mol in data set [3].
Regarding “SAGGAEQAREILKEWGFEISEVDPKKKTVQVTPPESGMPISIDVDEPGQIKIKIRMNGKPRTFEIPPSAGGS [r16_197_TrROS]”, the “folding stability dG unfold” value is -0.329 ± 0.24 kcal/mol in data set [1], -0.634 ± 0.87 kcal/mol in data set [2] and -0.215 ± 0.22 kcal/mol in data set [3].
“SAGGALANLSPEEIAALLESQGYEVTILEVEEKPGERIVKIRVTVKREDGTVESVEEIELTLPAPDKLSAGG [r13_566_JUSTAS]”: the “folding stability dG unfold” value turned out to be 3.7 ± 0.11 kcal/mol in data set [1], 2.05 ± 0.03 kcal/mol in data set [2] and 2.83 ± 0.095 kcal/mol in data set [3].
In the case of “SAGGALILLFPHPESRTVTALFVHPDGGSETIPFPVPESIDSLEEVADRLLREARERFPVPVEVVVASAGGS [r8_166_TrMRF]”, the “folding stability dG unfold” value in data set [1] stood at 0.944 ± 0.012 kcal/mol; in data set [2], 1.37 ± 0.033 kcal/mol; in data set [3], 1.2 ± 0.038 kcal/mol.
In the same order, the values of “SAGGAPSSFSTSSDPDGTQLLVVTEPGSGKPRTVRIPPGLNEAVTIPPSRSVSSVELVRVSPASPALLSAGG [r13_122_JUSTAS]” are -1.16 ± 0.46 kcal/mol, -0.734 ± 0.18 kcal/mol and -0.803 ± 0.14 kcal/mol.
Regarding “SAGGAPSTFTSTSPEGETTVTTTTTYYPETGTTTTTTTTTNPATGTSTTTTTTTPVAPPQPPLLEAGASAGG [r13_694_JUSTAS]”, the “folding stability dG unfold” value in data set [1] is 0.827 ± 0.056 kcal/mol; in data set [2], 1.08 ± 0.047 kcal/mol; in data set [3], 1.05 ± 0.067 kcal/mol.
As for “SAGGAPVPVSVTVEIFKRPDGYIIKVNIPSGETKTFSSLEELEKFLKENPSLKITKRTTVPIEKYYESSAGG [r13_730_JUSTAS]”, the “folding stability dG unfold” value in data set [1] was found to be 1.94 ± 0.047 kcal/mol; in data set [2], 2.83 ± 0.021 kcal/mol; in data set [3] it was 2.67 ± 0.071 kcal/mol.
Take “SAGGARREIVIEIEADTLEEALAAAREALAALEDPEDLTVTIVVRLPPPPPPPRPRRVRLDGEEVELRSAGG [r13_718_TrROS_Hall]”: the “folding stability dG unfold” value is -0.384 ± 0.75 kcal/mol in data set [1], 1.32 ± 0.19 kcal/mol in data set [2] and 1.01 ± 0.22 kcal/mol in data set [3].
On to “SAGGATIEIKELGRDEDTWYFLVTDPGSAEAVKDFIEKFIPPDYDAKIKILSVDPETGKVTALIEIPGSAGG [r13_491_TrMRF]”, for which the “folding stability dG unfold” value was 2.23 ± 0.11 kcal/mol in data set [1], 2.69 ± 0.14 kcal/mol in data set [2] and 2.64 ± 0.15 kcal/mol in data set [3].
Regarding “SAGGATLTEPETTVEVRFEKLPDGTVIRTTTTITPEGVTTTTEPVPVPPSPGASSEEELEALRAAAAAASAG [r5_272_JUSTAS]”, the “folding stability dG unfold” value in data set [1] is 1.75 ± 0.037 kcal/mol; in data set [2] it was 1.51 ± 0.037 kcal/mol; in data set [3], 1.6 ± 0.18 kcal/mol.
As for “SAGGATRIRVLATNASGEKVELDIPQAIADAIAEALKQGKPIPPGPASVIAAFATSNGYDFEIVDISSAGGS [r8_159_TrMRF]”, the “folding stability dG unfold” value in data set [1] came to 2.02 ± 0.062 kcal/mol; in data set [2], 3.106 ± 0.031 kcal/mol; in data set [3] it was 2.85 ± 0.093 kcal/mol.
In the same order, the values of “SAGGAVEITDISSKTVTEPVTFENGTVVPQERTAGTVTTTENGTPVATVPFTSEEELEEAIARALAESAGGS [r8_21_JUSTAS]” are -0.276 ± 0.22 kcal/mol, 1.24 ± 0.034 kcal/mol and 0.869 ± 0.1 kcal/mol.
For the sequence “SAGGAVEKNSNNPNTSPEKAKEIAEEIAEELKKEGHVPKSISFSEKENGKLTATIKIEDGKELTIGLSAGGS [r8_485_JUSTAS]”, the “folding stability dG unfold” value is -0.343 ± 0.16 kcal/mol in data set [1], -0.467 ± 0.17 kcal/mol in data set [2] and below -1 kcal/mol in data set [3].
For the sequence “SAGGAVYRNPATGEWYEPGMTEEEREARARAALPPPTVTITVTVTVVFEDNGTTVTATATVTLTVEGSAGGS [r16_387_TrROS_Hall]”, the “folding stability dG unfold” value in data set [1] is 2.97 ± 0.11 kcal/mol; in data set [2], 3.83 ± 0.12 kcal/mol; in data set [3], 3.44 ± 0.1 kcal/mol.
Regarding “SAGGDALKGLPPGAKVKVERVNGKLVVVVEKVEVKPPPKVTLTLPPGWKLTRLELTEDGTLKAELEPSAGGS [r16_103_TrROS_Hall]”, the “folding stability dG unfold” value in data set [1] stood at 1.4 ± 0.053 kcal/mol; in data set [2] it was 2.13 ± 0.068 kcal/mol; in data set [3], 1.79 ± 0.23 kcal/mol.
In the same order, the values of “SAGGDATIVLTDFPEDDPEARIRTARNLYRELKAAGPPLRINILTDTPLGREVADYLESEGIEVGLGSAGGS [r16_450_TrMRF]” are -0.828 ± 0.43 kcal/mol, -0.206 ± 0.26 kcal/mol and -0.33 ± 0.2 kcal/mol.
With “SAGGDDKWKIEIDIQPHDDYWVITARIRDPNGKERERMFMMPPDNIKKILNELPPEIEDIEVHRVPNSAGGS [r16_298_TrROS]”, the “folding stability dG unfold” value in data set [1] was 2.11 ± 0.074 kcal/mol; in data set [2], 2.72 ± 0.045 kcal/mol; in data set [3], 2.53 ± 0.17 kcal/mol.
For “SAGGDEIAKEIANHAREQGYKVEVKVERDEDGMVKIDVEMSMPNGRRVTFSITINPDGIEIQSIEVTPSAGG [r13_203_TrROS]”, the “folding stability dG unfold” value in data set [1] was 2.65 ± 0.12 kcal/mol; in data set [2] it was 4.41 ± 0.067 kcal/mol; in data set [3] it was 3.97 ± 0.15 kcal/mol.
As for “SAGGDKDNKPPIPTKTITFMLPYDSPEDAKDYAEEIARELFQEEGIPIKVTVQYNPESGWVWVTITIYSAGG [r13_517_TrROS]”, the “folding stability dG unfold” value in data set [1] is 3.49 ± 0.1 kcal/mol; in data set [2], 4.57 ± 0.075 kcal/mol; in data set [3], 4.32 ± 0.12 kcal/mol.
Turning to “SAGGDLEAKPFEITFVIKAKPFPTPDGRLVETPEKVFKLKVLVVRGPNETRLFVFDEDGNLLFTSNLSAGGS [r16_92_TrMRF]”, the entries for the “folding stability dG unfold” value in data set [1], in data set [2] and in data set [3] were 2.37 ± 0.051 kcal/mol, 3.888 ± 0.022 kcal/mol and 3.39 ± 0.064 kcal/mol, respectively.
Consider “SAGGDLIERVAKELMEKFPMKPGEPRPITIEIPYPDGYRIKVDIPVRVNPDNGEFRFKFDIKEIEPWSAGGS [r16_634_TrROS]”, for which the “folding stability dG unfold” value came to 1.02 ± 0.052 kcal/mol in data set [1], 1.43 ± 0.16 kcal/mol in data set [2] and 1.25 ± 0.13 kcal/mol in data set [3].
For “SAGGDPDEIKKVIITARIYRPDPDGNIHTATIPIIIEGPLDEVIEKVAKEIEEAFGTKIVEITVEKGSAGGS [r16_511_TrMRF]”, the “folding stability dG unfold” value is 1.54 ± 0.047 kcal/mol in data set [1], 1.2 ± 0.07 kcal/mol in data set [2] and 1.36 ± 0.14 kcal/mol in data set [3].
In the same order, the values of “SAGGDPETPTTITAPVDPATGTTTWVVNDGSSTSTIPSSLSLEELKKLGLTKAEPLPDGTLRFTILASAGGS [r8_382_JUSTAS]” are 0.289 ± 0.022 kcal/mol, 0.494 ± 0.081 kcal/mol and 0.495 ± 0.053 kcal/mol.
In the same order, the values of “SAGGDPGWVRVTAEIELDGKNLKIEWWYMPNGNYYYNIEFPNGKEIEIMIPMEPGDVEEFAEYIAKKLSAGG [r13_296_TrROS]” are 2.32 ± 0.069 kcal/mol, 2.838 ± 0.028 kcal/mol and 2.66 ± 0.11 kcal/mol.
With “SAGGDPSATPVVVEFTLPDGARAVATTFPSGVVVARVFNPVTGRTTEVTVTVVPESATATVTVRPNPDSAGG [r13_822_TrMRF]”, the “folding stability dG unfold” value turned out to be 0.762 ± 0.027 kcal/mol in data set [1], 1.13 ± 0.067 kcal/mol in data set [2] and 1.02 ± 0.053 kcal/mol in data set [3].
Turning to “SAGGDVTIEWFPMSEEEMKKMMEEMPPNTIMIPFPGNGYFIPVRVPDDPEEADKIAEEIRKWLEQLPSAGGS [r16_311_TrROS]”, the “folding stability dG unfold” value in data set [1] came to 1.81 ± 0.057 kcal/mol; in data set [2], 1.44 ± 0.024 kcal/mol; in data set [3], 1.62 ± 0.063 kcal/mol.
For the sequence “SAGGDVVRVRVRLRRFEIVGDRPVYRPVDIDILAEADGDPEAARRRAEREARRLAEEYGAEIEDIELFPSAG [r5_497_TrMRF]”, the “folding stability dG unfold” value in data set [1] is 2.15 ± 0.026 kcal/mol; in data set [2] it was 2.57 ± 0.04 kcal/mol; in data set [3] it was 2.4 ± 0.083 kcal/mol.
As to “SAGGEEELKKNPDLIVIKITIRNKETGEEIEELEIVLSKEELEELLETLRKLLPPGWEIVKVEIRKLPSAGG [r13_849_TrROS_Hall]”, the figures for the “folding stability dG unfold” value in data set [1], in data set [2] and in data set [3] were 4.11 ± 0.24 kcal/mol, 3.02 ± 0.14 kcal/mol and 4 ± 0.3 kcal/mol, respectively.
As for “SAGGEEIEAEVVEVRTFTLENGFEVTTTLIRVDGKLILITSVKKTKNGKWEVVEVKELPLEELSPEELSAGG [r13_494_TrROS_Hall]”, the entries for the “folding stability dG unfold” value in data set [1], in data set [2] and in data set [3] were 3.35 ± 0.14 kcal/mol, 2.73 ± 0.035 kcal/mol and 2.93 ± 0.14 kcal/mol, respectively.
